From patent US20080166343A1 (CSL, published 2008)

Key:
[1] = biological target: T1, human IL-13Rα1 on cells (NHDF cells; cells of whole human blood) (human, UniProt P78552 27-427); assay: cell-based or functional assay
T1 sequence: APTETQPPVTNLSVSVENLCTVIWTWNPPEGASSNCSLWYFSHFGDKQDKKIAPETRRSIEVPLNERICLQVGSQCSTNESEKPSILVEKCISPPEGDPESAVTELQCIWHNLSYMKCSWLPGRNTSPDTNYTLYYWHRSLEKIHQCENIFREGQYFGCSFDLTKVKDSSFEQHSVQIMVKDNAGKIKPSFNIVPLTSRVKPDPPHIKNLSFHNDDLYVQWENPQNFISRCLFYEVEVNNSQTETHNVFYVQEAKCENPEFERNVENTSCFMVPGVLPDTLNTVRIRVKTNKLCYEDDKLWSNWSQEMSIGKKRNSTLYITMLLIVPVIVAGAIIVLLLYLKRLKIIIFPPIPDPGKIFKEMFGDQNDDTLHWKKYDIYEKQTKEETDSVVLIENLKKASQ

[2] = biological target: T1, human IL-13Rα1 on cells (NHDF cells; …); assay: cell-based or functional assay; remark: listed apart in the source

B1: 10G5-3 (antibody, human IgG4 S228P, kappa, V domains shown)
VH: EVQLVQSGAEVKKPGESLKISCKGSGYSFTSYWIGWVRQMPGKGLEWMGVIYPGDSYTRYSPSFQGQVTISADKSISTAYLQWSSLKASDTAMYYCARMPNWGSFDYWGQGTLVTVSS
VL: EIVLTQSPGTLSLSPGERATLSCRASQSISSSYLAWYQQKPGQAPRLLIYGASSRATGIPDRFSGSGSGTDFTLTISRLEPEDFAVYYCQQYEAFGQGTKVEIKR
EC50, inhibition of eotaxin release from NHDF cells upon stimulation by IL-4 [1]: 0.983 µg/mL
EC50, inhibition of eotaxin release from NHDF cells upon stimulation by IL-13 [2]: 0.614 µg/mL
